Test results as given in paper PMC3830444.

Target: FPR-chloromethyl ketone-thrombin (active site-inhibited α-thrombin) (human), P00734
Assay: ELISA

Binder: GDFEPIPEDAYDE (modifications not checked) [H6HV3_(54-66)G6 synthetic peptide]
- IC50: 5 µM
